Measured values as given in paper PMC4755545.

Biological target: TAP-tagged Lid1 (Apc4), subunit of the APC/C (S. pombe) (UniProt O42839)
Experiment: co-IP; Apc4-TAP pulled down with IgG Dynabeads from extracts of cdc25-22 cells released from G2 into mitosis at 25°C, carbendazim added after 20 min, time points every 15 min; blots for Mad3p (anti-GFP) and Mad2p; lysis buffer 50 mM HEPES pH 7.5, 75 mM KCl, 0.1% TritonX-100; strains wild type, mad3-KEN1, mad3-KEN2, mad3-C9A, mad2-S92A, mad3-C9A mad2-S92A

Chain of UniProt O42839 (O42839 whole entry): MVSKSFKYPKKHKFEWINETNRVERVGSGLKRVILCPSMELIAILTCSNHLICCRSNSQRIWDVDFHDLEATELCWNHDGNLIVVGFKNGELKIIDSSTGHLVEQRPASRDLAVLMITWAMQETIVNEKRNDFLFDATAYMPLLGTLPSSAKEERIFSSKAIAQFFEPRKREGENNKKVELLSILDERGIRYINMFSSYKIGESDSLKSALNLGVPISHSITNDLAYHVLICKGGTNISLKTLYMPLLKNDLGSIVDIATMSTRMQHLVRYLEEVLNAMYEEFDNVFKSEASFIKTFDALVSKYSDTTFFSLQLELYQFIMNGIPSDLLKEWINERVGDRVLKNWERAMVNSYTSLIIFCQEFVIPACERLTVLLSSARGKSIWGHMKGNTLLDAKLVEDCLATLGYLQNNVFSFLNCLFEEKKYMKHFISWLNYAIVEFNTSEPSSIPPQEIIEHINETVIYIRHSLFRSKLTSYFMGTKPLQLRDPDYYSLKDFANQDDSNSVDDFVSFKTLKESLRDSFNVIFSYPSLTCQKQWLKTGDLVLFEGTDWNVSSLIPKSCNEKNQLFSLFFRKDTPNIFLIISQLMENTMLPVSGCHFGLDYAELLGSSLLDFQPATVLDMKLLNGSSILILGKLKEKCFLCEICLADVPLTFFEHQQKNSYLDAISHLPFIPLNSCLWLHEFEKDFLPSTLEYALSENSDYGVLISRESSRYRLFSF

| Substance | level bound to the APC/C as percent of wild type (mad3-C9A mad2-S92A strain, 45 and 60 min) [%] | MCC-APC/C level as percent of wild type, 60 min [%] |
| --- | --- | --- |
| Mad3-C9A tagged with GFP (from UniProt O59767 1-310) (natural protein) | 20 | – |
| Mad3-KEN2 mutant tagged with GFP (from UniProt O59767 1-310) (natural protein) | – | 65 |
